Laboratory results reported in US7446182 (University of Texas, dated 2008).

How the values were obtained:
[1] = target: T1, Bacillus anthracis protective antigen (PA), 83 kDa polypeptide (Bacillus anthracis, UniProt P13423 30-764); experiment: SPR
[2] = target: T1, Bacillus anthracis protective antigen …; experiment: SPR, PA immobilized on CM5 chip

T1 sequence (P13423 30-764 limits assumed): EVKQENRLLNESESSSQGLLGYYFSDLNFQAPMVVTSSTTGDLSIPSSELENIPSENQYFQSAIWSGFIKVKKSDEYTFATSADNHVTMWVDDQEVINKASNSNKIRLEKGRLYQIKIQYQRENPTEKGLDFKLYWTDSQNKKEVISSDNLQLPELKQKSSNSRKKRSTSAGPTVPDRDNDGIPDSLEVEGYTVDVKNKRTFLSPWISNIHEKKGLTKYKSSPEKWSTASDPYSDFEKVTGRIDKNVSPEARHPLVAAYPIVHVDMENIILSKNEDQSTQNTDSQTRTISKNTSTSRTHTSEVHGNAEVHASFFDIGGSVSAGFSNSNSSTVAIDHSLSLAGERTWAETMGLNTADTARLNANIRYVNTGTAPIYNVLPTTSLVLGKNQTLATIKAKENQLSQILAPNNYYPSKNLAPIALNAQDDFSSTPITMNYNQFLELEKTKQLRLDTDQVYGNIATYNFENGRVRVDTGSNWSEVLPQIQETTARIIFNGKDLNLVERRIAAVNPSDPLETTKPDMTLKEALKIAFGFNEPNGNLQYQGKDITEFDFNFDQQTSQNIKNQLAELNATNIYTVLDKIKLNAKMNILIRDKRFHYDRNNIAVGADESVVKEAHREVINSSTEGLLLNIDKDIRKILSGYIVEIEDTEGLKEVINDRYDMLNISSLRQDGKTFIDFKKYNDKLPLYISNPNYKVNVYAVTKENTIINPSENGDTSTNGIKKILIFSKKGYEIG

B1: 1H scFv (scFv)
scFv: DIQMTQTTSSLSASLGDRVTISCRASQDIRNYLNWYQQKPDGTVKLLIYYTSRLLPGVPSRFSGSGSGTDYSLTISNQEQEDIGTYFCQQGNTLPWTGFFFTKLEIRRGGGGSGGGGSGGGGSGGGGSEVQLQQSGPELVKPGASVKISCKIDSGYAFSSSWMNWVKQRFGQGLEWIGRIYPGDGDTNYNGKFKGKATLTADKSSSTAYMQLSSLTSVDSAVYFCARSGLLRYAMDYWGQGTSVTVSS
Kd [1]: 0.25 nM | fold lower equilibrium dissociation constant than 14B7 [1]: 48 fold | Kd [2]: 0.24 nM | koff [2]: 0.00017 s⁻¹ | kon [2]: 720000 M⁻¹ s⁻¹
